Experimental findings from patent US20160083476A1 (CENTRE NATIONAL DE LA RECHERCHE SCIENTIFIQUE CNRS, published 2016) are described below.

Test [1] concerns the target extracellular region of human recombinant (CD16B) receptor FcγRIIIB (human) (UniProt O75015). As to the kind of experiment: SPR, BIACORE 3000; VHH captured on immobilised anti-c-myc mAb 9E10, CD16 injected.
For test [2], the target named is T1, NCA expressed at the surface of MC38/NCA+ cells and granulocytes (UniProt P40199 35-320, limits assumed).
T1 construct: whole, on cells
T1 sequence (looked up): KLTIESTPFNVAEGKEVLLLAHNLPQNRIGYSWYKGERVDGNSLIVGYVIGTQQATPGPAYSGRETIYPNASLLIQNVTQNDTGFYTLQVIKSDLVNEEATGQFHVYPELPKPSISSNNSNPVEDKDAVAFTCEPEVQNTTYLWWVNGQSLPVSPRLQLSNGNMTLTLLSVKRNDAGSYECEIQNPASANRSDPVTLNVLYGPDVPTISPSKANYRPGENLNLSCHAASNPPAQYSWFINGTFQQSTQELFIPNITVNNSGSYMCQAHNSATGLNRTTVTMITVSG
As to the kind of experiment: FACS on cells, detection by 9E10 anti-c-myc then anti-mouse IgG-FITC. Here is the method: At each step, the samples are incubated for 45 min, 4° C., in the dark. Between each reaction, a washing is carried out with 2 ml of PBS/1% BSA. At the last step, the cells are taken up with 0.5 ml of PBS.

Test [3] has as its target T1, NCA expressed at the surface of …. As to the kind of experiment: FACS on MC38/NCA+ cells and granulocytes.
Test [4] has as its target T2, extracellular region of the human recombinant carcinoembryonary antigen (CEA) (human, UniProt P06731 35-676, limits assumed).
T2 construct: extracellular domain; The Biacore paragraph says only 'CEA'; also called rhCEA
T2 sequence (looked up): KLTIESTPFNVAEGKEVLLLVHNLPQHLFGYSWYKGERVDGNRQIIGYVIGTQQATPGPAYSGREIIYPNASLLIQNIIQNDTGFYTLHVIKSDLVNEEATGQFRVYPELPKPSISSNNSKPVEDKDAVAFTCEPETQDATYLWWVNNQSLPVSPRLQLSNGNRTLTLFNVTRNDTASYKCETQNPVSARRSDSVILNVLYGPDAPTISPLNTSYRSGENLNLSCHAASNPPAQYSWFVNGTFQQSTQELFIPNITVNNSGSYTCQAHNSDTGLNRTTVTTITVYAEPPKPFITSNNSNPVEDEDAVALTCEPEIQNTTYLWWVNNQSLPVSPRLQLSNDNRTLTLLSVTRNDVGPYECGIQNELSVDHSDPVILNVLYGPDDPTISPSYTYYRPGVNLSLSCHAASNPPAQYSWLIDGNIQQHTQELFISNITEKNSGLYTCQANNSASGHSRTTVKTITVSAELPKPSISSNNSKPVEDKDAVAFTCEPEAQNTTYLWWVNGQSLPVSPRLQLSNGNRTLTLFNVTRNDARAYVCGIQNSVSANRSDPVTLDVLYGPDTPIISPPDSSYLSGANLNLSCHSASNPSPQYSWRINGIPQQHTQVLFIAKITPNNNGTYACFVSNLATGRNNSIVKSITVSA
As to the kind of experiment: SPR, BIACORE 3000; VHH captured on immobilised anti-c-myc mAb 9E10, CEA injected. Here is the method: The VHH (in buffer: 10 mM HEPES; 150 mM NaCl; 3 mM EDTA; 0.005% surfactant P20) is then injected and then a range of CEA or CD16 is injected on the VHH immobilised on the 9E10.
On the technique in general: SPR reads the build-up and loss of mass on a sensor chip optically.

Sequence of extracellular region of human recombinant (CD16B) receptor FcγRIIIB (human) (O75015 17-200 limits assumed): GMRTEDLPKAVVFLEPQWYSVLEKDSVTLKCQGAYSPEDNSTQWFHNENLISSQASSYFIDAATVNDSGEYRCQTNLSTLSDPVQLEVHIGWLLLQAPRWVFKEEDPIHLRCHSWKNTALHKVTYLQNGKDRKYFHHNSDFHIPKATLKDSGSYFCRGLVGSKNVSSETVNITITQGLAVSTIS

B1: Anti-CD16 c21 VHH (VHH)
VHH: EVQLVESGGELVQAGGSLRLSCAASGLTFSSYNMGWFRRAPGKEREFVASITWSGRDTFYADSVKGRFTISRDNAKNTVYLQMSSLKPEDTAVYYCAANPWPVAAPRSGTYWGQGTQVTVSS
Broadly, the Kd is the free concentration of one partner at which half of the binding sites on the other are occupied at equilibrium, for simple one-to-one binding. For orientation: koff means a measure of how fast the partners let go of each other. In general, kon refers to a measure of how fast the partners come together. Turning to B1, in test [1], the Ka worked out at 1.03e+08 M⁻¹, the Kd is 9.7 nM, the koff was 0.00279 s⁻¹ and the kon came to 286000 M⁻¹ s⁻¹.

B2: Anti-CEA 17 VHH (VHH)
VHH: EVQLVESGGGFVQAGESLTLSCTSSTLTFTPYRMAWYRQAPGKQRDLVADISSGDGRTTNYADFAKGRFTISRDNIKNTVFLRMTNLKPEDTAVYYCNTFVSFVGIARSWGQGTQVTVSS
notes: also called VHH CEA 17; anti-CEA VHH clone 17
Take B2: in test [2], the binding result is recorded as “no binding”.

B3: Anti-CEA 25 VHH (VHH)
VHH: EVQLVESGGGLVQAGDSLTLTCTSPTLTFTPYRMGWYRQAPGKQRDLVADISGGDGRTTNYADFAKGRFTISRDNVKNAVYLQMNNLKPEDTAIYYCNTYVAIVGHARSWGQGTQVTVSS
notes: Purified from E. coli periplasm; c-myc tag recognised by mAb 9E10; also called anti-CEA VHH clone 25
On to B3, for which the binding result in test [3] is “no binding (tested: 1 to 5 µg/ml)”. In test [4], the Ka is 3.15e+07 M⁻¹, the Kd came to 31.7 nM, the koff is 0.0036 s⁻¹ and the kon was 113000 M⁻¹ s⁻¹.

B4: Anti-CD16 c72 VHH (VHH)
VHH: EVQLVESGGGLVQPGGSLTLSCVAAGSIFTFAMSWYRQAPRKERELVARIGTDDETMYKDSVKGRFTISRDNVKRTAGLQMNNLKPEDTAVYYCNARTDYRDWTVREYWGQGTQVTVSS
As to B4, in test [1], the Ka came out at 1.06e+07 M⁻¹, the dissociation constant (Kd) is 94.6 nM, the koff stood at 0.0037 s⁻¹ and the kon worked out at 39000 M⁻¹ s⁻¹.

B5: Anti-CEA 3 VHH (VHH)
VHH: EVQLVESGGGLVQAGGSLRLSCTSSTVTFTPYQMGWYRQAPGKQRALVADISTGGSRTNYADFAKGRFTISRDDVKNTVYLQMNNLKPEDTAVYYCNTYYAMIGHARNWGQGTQVTVSS
notes: Purified from E. coli periplasm; c-myc tag recognised by mAb 9E10; also called anti-CEA VHH clone 3
With B5, in test [4], the Ka came to 7.38e+07 M⁻¹, the Kd came out at 13.6 nM, the koff worked out at 0.00168 s⁻¹ and the kon stood at 124000 M⁻¹ s⁻¹.

B6: Anti-CD16 c13 VHH (VHH)
VHH: EVQLVESGGGLVQPGGSLRLSCSFPGSIFSLTMGWYRQAPGKERELVTSATPGGDTNYADFVKGRFTISRDNARSIIYLQMNSLKPEDTAVYYCYARTRNWGTVWGQGTQVTVSS
On to B6, for which, in test [1], the Ka is 9.4e+06 M⁻¹, the Kd was 101 nM, the koff is 0.00567 s⁻¹ and the kon came to 53000 M⁻¹ s⁻¹.

B7: Anti-CEA 43 VHH (VHH)
VHH: EVQLVESGGGLVQAGGSLTLSCTSSTLTFTPYRMGWYRQTPGKQRDLVADISPGDGSTKNYAGFAQGRFTISRDNIKNTVYLQMNDLKPEDTAVYYCNTYVAFVGRARTWGQGTQVTVTS
notes: Purified from E. coli periplasm; c-myc tag recognised by mAb 9E10; also called anti-CEA VHH clone 43
Regarding B7, the binding result in test [3] is recorded as “no binding (tested: 1 to 5 µg/ml)”. In test [4], the Ka was found to be 9.72e+07 M⁻¹, the Kd amounted to 10.3 nM, the koff came to 0.00183 s⁻¹ and the kon stood at 178000 M⁻¹ s⁻¹.
